In patent publication US20220010021A1 (Sanofi, published 2022):

T1: human beta-Klotho (KLB) (human, UniProt Q86Z14 53-997)
T1 construct: bought protein, used as analyte in the off-rate screening; also called human KLB; β-Klotho
T1 sequence (looked up): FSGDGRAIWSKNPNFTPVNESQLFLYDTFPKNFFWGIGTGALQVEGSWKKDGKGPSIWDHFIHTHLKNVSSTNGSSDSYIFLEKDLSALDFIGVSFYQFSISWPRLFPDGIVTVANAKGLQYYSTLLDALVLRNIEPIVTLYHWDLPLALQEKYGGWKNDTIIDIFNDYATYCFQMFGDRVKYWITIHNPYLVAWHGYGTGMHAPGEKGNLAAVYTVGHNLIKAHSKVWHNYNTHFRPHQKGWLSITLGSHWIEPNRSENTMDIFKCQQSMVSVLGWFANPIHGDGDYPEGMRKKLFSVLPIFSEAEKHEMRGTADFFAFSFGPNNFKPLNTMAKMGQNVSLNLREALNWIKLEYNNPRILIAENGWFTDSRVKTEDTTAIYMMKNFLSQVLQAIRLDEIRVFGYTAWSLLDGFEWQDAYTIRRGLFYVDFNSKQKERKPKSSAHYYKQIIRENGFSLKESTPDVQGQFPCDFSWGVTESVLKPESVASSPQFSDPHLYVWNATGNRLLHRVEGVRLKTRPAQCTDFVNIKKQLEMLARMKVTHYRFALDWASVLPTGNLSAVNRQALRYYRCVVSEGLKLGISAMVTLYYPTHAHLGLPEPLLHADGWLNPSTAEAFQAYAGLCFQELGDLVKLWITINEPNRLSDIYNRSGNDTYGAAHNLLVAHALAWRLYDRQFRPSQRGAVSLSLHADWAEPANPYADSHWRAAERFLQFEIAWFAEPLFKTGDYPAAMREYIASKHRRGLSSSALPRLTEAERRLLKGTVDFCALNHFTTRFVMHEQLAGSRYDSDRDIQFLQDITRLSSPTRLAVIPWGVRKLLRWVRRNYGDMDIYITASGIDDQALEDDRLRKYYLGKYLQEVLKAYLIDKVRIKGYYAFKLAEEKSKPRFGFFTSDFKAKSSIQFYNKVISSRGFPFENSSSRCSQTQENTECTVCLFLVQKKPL

T2: human beta-Klotho (KLB) (human, UniProt Q86Z14 53-997)
T2 construct: bought protein; also called human KLB
T2 sequence (looked up): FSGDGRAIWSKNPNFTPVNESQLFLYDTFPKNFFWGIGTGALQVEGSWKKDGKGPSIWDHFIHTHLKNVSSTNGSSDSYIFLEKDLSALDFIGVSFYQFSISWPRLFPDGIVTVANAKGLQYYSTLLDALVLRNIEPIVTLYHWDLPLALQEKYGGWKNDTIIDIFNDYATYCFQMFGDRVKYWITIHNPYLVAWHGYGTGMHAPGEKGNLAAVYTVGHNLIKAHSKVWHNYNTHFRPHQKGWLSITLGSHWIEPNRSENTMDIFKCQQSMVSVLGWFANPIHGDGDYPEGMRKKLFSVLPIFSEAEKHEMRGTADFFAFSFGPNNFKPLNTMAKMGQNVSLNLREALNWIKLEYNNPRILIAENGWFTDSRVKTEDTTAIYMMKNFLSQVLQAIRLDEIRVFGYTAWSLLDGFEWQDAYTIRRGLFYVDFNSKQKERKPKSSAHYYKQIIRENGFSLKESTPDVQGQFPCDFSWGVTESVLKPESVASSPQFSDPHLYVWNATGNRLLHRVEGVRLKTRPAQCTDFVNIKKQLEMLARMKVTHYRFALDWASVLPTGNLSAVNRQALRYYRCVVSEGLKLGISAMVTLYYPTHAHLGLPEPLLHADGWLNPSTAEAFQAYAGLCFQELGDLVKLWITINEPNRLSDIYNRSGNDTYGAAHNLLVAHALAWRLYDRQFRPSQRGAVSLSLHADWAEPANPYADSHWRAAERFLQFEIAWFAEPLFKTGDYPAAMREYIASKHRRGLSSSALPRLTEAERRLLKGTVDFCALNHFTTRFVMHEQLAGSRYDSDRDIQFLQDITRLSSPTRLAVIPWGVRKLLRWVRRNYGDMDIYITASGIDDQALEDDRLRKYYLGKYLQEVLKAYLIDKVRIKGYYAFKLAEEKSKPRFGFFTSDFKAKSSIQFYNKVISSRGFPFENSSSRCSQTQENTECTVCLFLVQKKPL


Columns and labels:
human beta-Klotho (KLB) [1] = biological target: T1, human beta-Klotho (KLB); test: BLI off-rate screening, mAb captured, KLB analyte;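 further: Off-rate taken from the dissociation phase, biosensors held in D-PBS with 0.1% BSA over 1800 s, antibody supernatants diluted to 25 µg/mL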
[2] = biological target: human FGFR1c/KLB receptor complex on iLite FGF21 Assay Ready Cells (human, UniProt P11362 22-822; Q86Z14 1-1044); test: cell-based or functional assay; on Mean E max (%): reference of the scale not given here
human FGFR1c/KLB receptor complex on iLite FGF21 Assay Ready Cells, sequence (P11362 22-822, chain 1 of 2): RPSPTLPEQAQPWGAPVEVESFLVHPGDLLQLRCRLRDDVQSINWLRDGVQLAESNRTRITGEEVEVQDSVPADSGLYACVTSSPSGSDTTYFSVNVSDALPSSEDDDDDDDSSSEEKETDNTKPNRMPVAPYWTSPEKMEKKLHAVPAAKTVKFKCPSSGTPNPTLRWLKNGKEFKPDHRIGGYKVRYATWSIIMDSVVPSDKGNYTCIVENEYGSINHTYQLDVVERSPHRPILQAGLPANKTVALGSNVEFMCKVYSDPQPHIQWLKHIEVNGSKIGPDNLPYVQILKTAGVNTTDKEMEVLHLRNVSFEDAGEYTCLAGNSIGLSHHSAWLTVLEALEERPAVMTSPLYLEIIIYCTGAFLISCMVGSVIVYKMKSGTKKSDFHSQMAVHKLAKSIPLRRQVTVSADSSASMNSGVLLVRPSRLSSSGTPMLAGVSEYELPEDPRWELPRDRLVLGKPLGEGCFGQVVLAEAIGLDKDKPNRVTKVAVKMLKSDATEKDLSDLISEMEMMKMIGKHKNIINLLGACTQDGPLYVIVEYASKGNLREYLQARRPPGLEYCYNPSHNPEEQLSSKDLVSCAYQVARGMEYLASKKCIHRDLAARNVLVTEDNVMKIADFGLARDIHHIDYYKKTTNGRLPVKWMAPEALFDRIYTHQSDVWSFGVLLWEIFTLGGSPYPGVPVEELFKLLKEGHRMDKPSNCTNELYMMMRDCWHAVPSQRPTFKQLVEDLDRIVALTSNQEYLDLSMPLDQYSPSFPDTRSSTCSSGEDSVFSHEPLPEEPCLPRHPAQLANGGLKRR
human FGFR1c/KLB receptor complex on iLite FGF21 Assay Ready Cells, sequence (Q86Z14 whole entry, chain 2 of 2): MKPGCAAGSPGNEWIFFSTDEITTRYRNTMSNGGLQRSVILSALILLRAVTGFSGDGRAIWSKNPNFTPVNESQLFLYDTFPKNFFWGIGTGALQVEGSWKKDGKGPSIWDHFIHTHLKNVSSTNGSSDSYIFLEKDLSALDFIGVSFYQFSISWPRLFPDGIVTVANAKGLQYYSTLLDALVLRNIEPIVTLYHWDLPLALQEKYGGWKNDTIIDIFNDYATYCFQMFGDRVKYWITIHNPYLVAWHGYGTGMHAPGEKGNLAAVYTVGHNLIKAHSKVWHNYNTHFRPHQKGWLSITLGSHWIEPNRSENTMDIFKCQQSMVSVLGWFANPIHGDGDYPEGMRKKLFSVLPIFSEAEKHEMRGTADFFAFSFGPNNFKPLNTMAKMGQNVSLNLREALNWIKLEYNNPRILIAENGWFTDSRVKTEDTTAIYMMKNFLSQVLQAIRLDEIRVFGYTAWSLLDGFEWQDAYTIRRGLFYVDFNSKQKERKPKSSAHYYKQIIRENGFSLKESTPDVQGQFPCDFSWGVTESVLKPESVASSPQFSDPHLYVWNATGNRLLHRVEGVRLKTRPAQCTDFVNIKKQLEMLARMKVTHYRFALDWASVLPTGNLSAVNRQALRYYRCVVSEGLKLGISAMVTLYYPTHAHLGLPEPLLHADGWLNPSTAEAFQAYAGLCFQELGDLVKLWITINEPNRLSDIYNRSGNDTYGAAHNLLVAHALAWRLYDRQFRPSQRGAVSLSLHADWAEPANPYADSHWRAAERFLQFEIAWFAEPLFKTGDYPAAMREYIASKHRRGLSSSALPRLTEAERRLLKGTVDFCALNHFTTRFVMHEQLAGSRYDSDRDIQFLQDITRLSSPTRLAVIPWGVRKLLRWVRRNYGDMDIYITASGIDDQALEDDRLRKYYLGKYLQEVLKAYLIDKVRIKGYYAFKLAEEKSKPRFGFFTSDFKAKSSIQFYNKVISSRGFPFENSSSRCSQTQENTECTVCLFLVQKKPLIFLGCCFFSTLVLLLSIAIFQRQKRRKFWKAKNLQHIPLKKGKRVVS

[3] = biological target: human FGFR1c + KLB receptor complex on HEK293 iLite FGF21 reporter cells (human, UniProt P11362 22-822; Q86Z14 1-1044); test: cell-based or functional assay
human FGFR1c + KLB receptor complex on HEK293 iLite FGF21 reporter cells, sequence (P11362 22-822, chain 1 of 2): as the sequence (P11362 22-822, chain 1 of 2) above
human FGFR1c + KLB receptor complex on HEK293 iLite FGF21 reporter cells, sequence (Q86Z14 whole entry, chain 2 of 2): as the sequence (Q86Z14 whole entry, chain 2 of 2) above

human beta-Klotho (KLB) [4] = biological target: T2, human beta-Klotho (KLB); test: SPR

Row | Binder | koff (human beta-Klotho (KLB) [1]) [s⁻¹] | Mean E max (%) [2] [%] | Mean EC50 [2] [nM] | EC50 [3] [nM] | Emax [3] [%] | koff (human beta-Klotho (KLB) [4]) [s⁻¹]
1 | 16H7 variant with light chain substitution S55V (antibody, V domains shown) VH: not shown VL: SYVLTQPPSVSVAPGQTARITCGGNNIGSESVHWYQQKPGQAPVLVVYDDSDRPVGIPERFSGSNSGNTATLTISRVEAGDEADYYCQVWDGNSDHVVFGGGTKLTVLG | 4.4e-05 | 100 | 0.131 |  |  | 
2 | 16H7 variant with light chain substitution V98T (antibody, V domains shown) VH: not shown VL: SYVLTQPPSVSVAPGQTARITCGGNNIGSESVHWYQQKPGQAPVLVVYDDSDRPSGIPERFSGSNSGNTATLTISRVEAGDEADYYCQVWDGNSDHVTFGGGTKLTVLG | 3.1e-05 | 99 | 0.088 |  |  | 
3 | Ab0189 (antibody, IgG4, V domains shown, IgG4 PE) VH: not shown VL: SYVLTQPPSVSVAPGQTARITCGGNNIGSESVHWYQQKPGQAPVLVVYDESDRPSGIPERFSGSNSGNTATLTISRVEAGDEADYYCQVWDGNSDHVVFGGGTKLTVLG |  |  |  | 0.06 | 2760 | 0.000387
4 | Ab0198 (antibody, IgG4, V domains shown, IgG4 PE) VH: not shown VL: SYVLTQPPSVSVAPGQTARITCGGNNIGSESVHWYQQKPGQAPVLVVYDDSDRPSGIPERFSGSNSGNTATLTISRVEAGDEADYYCQVWDGESDHVVFGGGTKLTVLG |  |  |  | 0.05 | 2770 | 0.000346
5 | Ab0187 (antibody, IgG4, V domains shown, IgG4 PE) VH: not shown VL: SYVLTQPPSVSVAPGQTARITCGGSNIGSESVHWYQQKPGQAPVLVVYDDSDRPSGIPERFSGSNSGNTATLTISRVEAGDEADYYCQVWDGNSDHVVFGGGTKLTVLG |  |  |  | 0.04 | 2780 | 0.000156
6 | 16H7 variant with light chain substitution V98Y (antibody, V domains shown) VH: not shown VL: SYVLTQPPSVSVAPGQTARITCGGNNIGSESVHWYQQKPGQAPVLVVYDDSDRPSGIPERFSGSNSGNTATLTISRVEAGDEADYYCQVWDGNSDHVYFGGGTKLTVLG | 5.9e-05 | 100 | 0.109 |  |  | 
7 | Ab0196 (antibody, IgG4, V domains shown, IgG4 PE) VH: not shown VL: SYVLTQPPSVSVAPGQTARITCGGNNIGSESVHWYQQKPGQAPVLVVYDESDRPSGIPERFSGSNSGNTATLTISRVEAGDEADYYCQVWDGNSDHVVFGGGTKLTVLG |  |  |  | 0.12 | 2050 | 0.00194
8 | 16H7 variant with light chain substitution V98K (antibody, V domains shown) VH: not shown VL: SYVLTQPPSVSVAPGQTARITCGGNNIGSESVHWYQQKPGQAPVLVVYDDSDRPSGIPERFSGSNSGNTATLTISRVEAGDEADYYCQVWDGNSDHVKFGGGTKLTVLG | 9e-05 | 106 | 0.111 |  |  | 
9 | 16H7 variant with light chain substitution V98H (antibody, V domains shown) VH: not shown VL: SYVLTQPPSVSVAPGQTARITCGGNNIGSESVHWYQQKPGQAPVLVVYDDSDRPSGIPERFSGSNSGNTATLTISRVEAGDEADYYCQVWDGNSDHVHFGGGTKLTVLG | 1.8e-05 | 103 | 0.107 |  |  | 
10 | Ab0195 (antibody, IgG4, V domains shown, IgG4 PE) VH: not shown VL: SYVLTQPPSVSVAPGQTARITCGGNNIGSESVHWYQQKPGQAPVLVVYYDSDRPSGIPERFSGSNSGNTATLTISRVEAGDEADYYCQVWDGNSDHVVFGGGTKLTVLG |  |  |  | 0.14 | 2030 | 0.00267
11 | 16H7 variant with light chain substitution V98W (antibody, V domains shown) VH: not shown VL: SYVLTQPPSVSVAPGQTARITCGGNNIGSESVHWYQQKPGQAPVLVVYDDSDRPSGIPERFSGSNSGNTATLTISRVEAGDEADYYCQVWDGNSDHVWFGGGTKLTVLG | 5.6e-05 | 99 | 0.099 |  |  | 
12 | 16H7 variant with light chain substitution V98G (antibody, V domains shown) VH: not shown VL: SYVLTQPPSVSVAPGQTARITCGGNNIGSESVHWYQQKPGQAPVLVVYDDSDRPSGIPERFSGSNSGNTATLTISRVEAGDEADYYCQVWDGNSDHVGFGGGTKLTVLG | 1.1e-05 | 105 | 0.118 |  |  | 
13 | Ab0202 (antibody, IgG4, V domains shown, IgG4 PE) VH: QVTLKESGPVLVKPTETLTLTCTVSGFSLNNARVGVSWIRQPPGKALEWLAHIFSNDEKSYSTSLKSRLTISKDTSKSQVVLTMTNMDPVDTATYYCARSVVTGGYYYEGMDVWGQGTTVTVSS VL: SYVLTQPPSVSVAPGQTARITCGGNNIGSESVHWYQQKPGQAPVLVVYYDSDRPSGIPERFSGSNSGNTATLTISRVEAGDEADYYCQVWDGNSDHVVFGGGTKLTVLG |  |  |  | 0.07 | 1510 | 0.00161
14 | Ab0190 (antibody, IgG4, V domains shown, IgG4 PE) VH: not shown VL: SYVLTQPPSVSVAPGQTARITCGGNNIGSESVHWYQQKPGQAPVLVVYDDSDRPSGIPERFSGSNSGNTATLTISRVEAGDEADYYCQVWTGNSDHVVFGGGTKLTVLG |  |  |  | 0.05 | 2370 | 0.000195
15 | Ab0182 (antibody, IgG4, V domains shown, IgG4 PE) VH: not shown VL: SYVLTQPPSVSVAPGQTARITCGGNNIGSESVHWYQQKPGQAPVLVVYDESDRPSGIPERFSGSNSGNTATLTISRVEAGDEADYYCQVWDGNSDHVVFGGGTKLTVLG |  |  |  | 0.02 | 2290 | 0.000577
16 | Ab0188 (antibody, IgG4, V domains shown, IgG4 PE) VH: not shown VL: SYVLTQPPSVSVAPGQTARITCGGNNIGSESVHWYQQKPGQAPVLVVYYDSDRPSGIPERFSGSNSGNTATLTISRVEAGDEADYYCQVWDGNSDHVVFGGGTKLTVLG |  |  |  | 0.06 | 2410 | 0.00084
17 | Ab0180 (antibody, IgG4, V domains shown, IgG4 PE) VH: not shown VL: SYVLTQPPSVSVAPGQTARITCGGSNIGSESVHWYQQKPGQAPVLVVYDDSDRPSGIPERFSGSNSGNTATLTISRVEAGDEADYYCQVWDGNSDHVVFGGGTKLTVLG |  |  |  | 0.05 | 2710 | 0.00024
18 | Ab0197 (antibody, IgG4, V domains shown, IgG4 PE) VH: not shown VL: SYVLTQPPSVSVAPGQTARITCGGNNIGSESVHWYQQKPGQAPVLVVYDDSDRPSGIPERFSGSNSGNTATLTISRVEAGDEADYYCQVWTGNSDHVVFGGGTKLTVLG |  |  |  | 0.08 | 2000 | 0.00167
19 | Ab0191 (antibody, IgG4, V domains shown, IgG4 PE) VH: not shown VL: SYVLTQPPSVSVAPGQTARITCGGNNIGSESVHWYQQKPGQAPVLVVYDDSDRPSGIPERFSGSNSGNTATLTISRVEAGDEADYYCQVWDGESDHVVFGGGTKLTVLG |  |  |  | 0.04 | 2470 | 0.000144
20 | 16H7 variant with light chain substitution V98L (antibody, V domains shown) VH: not shown VL: SYVLTQPPSVSVAPGQTARITCGGNNIGSESVHWYQQKPGQAPVLVVYDDSDRPSGIPERFSGSNSGNTATLTISRVEAGDEADYYCQVWDGNSDHVLFGGGTKLTVLG | 0.00013 | 105 | 0.121 |  |  | 
21 | 16H7 variant with light chain substitution S55Y (antibody, V domains shown) VH: not shown VL: SYVLTQPPSVSVAPGQTARITCGGNNIGSESVHWYQQKPGQAPVLVVYDDSDRPYGIPERFSGSNSGNTATLTISRVEAGDEADYYCQVWDGNSDHVVFGGGTKLTVLG | 1.8e-05 | 113 | 0.126 |  |  | 
22 | Ab0194 (antibody, IgG4, V domains shown, IgG4 PE) VH: not shown VL: SYVLTQPPSVSVAPGQTARITCGGSNIGSESVHWYQQKPGQAPVLVVYDDSDRPSGIPERFSGSNSGNTATLTISRVEAGDEADYYCQVWDGNSDHVVFGGGTKLTVLG |  |  |  | 0.06 | 2550 | 0.000402
23 | Ab0201 (antibody, IgG4, V domains shown, IgG4 PE) VH: QVTLKESGPVLVKPTETLTLTCTVSGFSLNNARVGVSWIRQPPGKALEWLAHIFSNDEKSYSTSLKSRLTISKDTSKSQVVLTMTNMDPVDTATYYCARSVVTGGYYYEGMDVWGQGTTVTVSS VL: SYVLTQPPSVSVAPGQTARITCGGSNIGSESVHWYQQKPGQAPVLVVYDDSDRPSGIPERFSGSNSGNTATLTISRVEAGDEADYYCQVWDGNSDHVVFGGGTKLTVLG |  |  |  | 0.05 | 2490 | 0.000336
24 | 16H7 variant with light chain substitution V98A (antibody, V domains shown) VH: not shown VL: SYVLTQPPSVSVAPGQTARITCGGNNIGSESVHWYQQKPGQAPVLVVYDDSDRPSGIPERFSGSNSGNTATLTISRVEAGDEADYYCQVWDGNSDHVAFGGGTKLTVLG | 4.6e-05 | 99 | 0.139 |  |  | 
